Measured values taken from FireProtDB.
Where “and” joins values, the source holds several entries; their conditions need not be identical. Identical values can stand only once.

B1: Guanyl-specific ribonuclease Sa, P05798 (parent)
chain: DVSGTVCLSALPPEATDTLNLIASDGPFPYSQDGVVFQNRESVLPTQSYGYYHEYTVITPGARTRGTRRIITGEATQEDYYTGDHYATFSLIDQTC
B2: Phenylalanine--tRNA ligase, mitochondrial, O95363 (parent)
chain: MVGSALRRGAHAYVYLVSKASHISRGHQHQAWGSRPPAAECATQRAPGSVVELLGKSYPQDDHSNLTRKVLTRVGRNLHNQQHHPLWLIKERVKEHFYKQYVGRFGTPLFSVYDNLSPVVTTWQNFDSLLIPADHPSRKKGDNYYLNRTHMLRAHTSAHQWDLLHAGLDAFLVVGDVYRRDQIDSQHYPIFHQLEAVRLFSKHELFAGIKDGESLQLFEQSSRSAHKQETHTMEAVKLVEFDLKQTLTRLMAHLFGDELEIRWVDCYFPFTHPSFEMEINFHGEWLEVLGCGVMEQQLVNSAGAQDRIGWAFGLGLERLAMILYDIPDIRLFWCEDERFLKQFCVSNINQKVKFQPLSKYPAVINDISFWLPSENYAENDFYDLVRTIGGDLVEKVDLIDKFVHPKTHKTSHCYRITYRHMERTLSQREVRHIHQALQEAAVQLLGVEGRF
B3: Tissue-type plasminogen activator, P00750 (parent)
chain: MDAMKRGLCCVLLLCGAVFVSPSQEIHARFRRGARSYQVICRDEKTQMIYQQHQSWLRPVLRSNRVEYCWCNSGRAQCHSVPVKSCSEPRCFNGGTCQQALYFSDFVCQCPEGFAGKCCEIDTRATCYEDQGISYRGTWSTAESGAECTNWNSSALAQKPYSGRRPDAIRLGLGNHNYCRNPDRDSKPWCYVFKAGKYSSEFCSTPACSEGNSDCYFGNGSAYRGTHSLTESGASCLPWNSMILIGKVYTAQNPSAQALGLGKHNYCRNPDGDAKPWCHVLKNRRLTWEYCDVPSCSTCGLRQYSQPQFRIKGGLFADIASHPWQAAIFAKHRRSPGERFLCGGILISSCWILSAAHCFQERFPPHHLTVILGRTYRVVPGEEEQKFEVEKYIVHKEFDDDTYDNDIALLQLKSDSSRCAQESSVVRTVCLPPADLQLPDWTECELSGYGKHEALSPFYSERLKEAHVRLYPSSRCTSQHLLNRTVTDNMLCAGDTRSGGPQANLHDACQGDSGGPLVCLNDGRMTLVGIISWGLGCGQKDVPGVYTKVTNYLDWIRDNMRP
B4: Tryptophan synthase alpha chain, P0A877 (parent)
chain: MERYESLFAQLKERKEGAFVPFVTLGDPGIEQSLKIIDTLIEAGADALELGIPFSDPLADGPTIQNATLRAFAAGVTPAQCFEMLALIRQKHPTIPIGLLMYANLVFNKGIDEFYAQCEKVGVDSVLVADVPVEESAPFRQAALRHNVAPIFICPPNADDDLLRQIASYGRGYTYLLSRAGVTGAENRAALPLNHLVAKLKEYNAAPPLQGFGISAPDQVKAAIDAGAAGAISGSAIVKIIEQHINEPEKMLAALKVFVQPMKAATRS
B5: Lactose operon repressor, P03023 (parent)
chain: MKPVTLYDVAEYAGVSYQTVSRVVNQASHVSAKTREKVEAAMAELNYIPNRVAQQLAGKQSLLIGVATSSLALHAPSQIVAAIKSRADQLGASVVVSMVERSGVEACKAAVHNLLAQRVSGLIINYPLDDQDAIAVEAACTNVPALFLDVSDQTPINSIIFSHEDGTRLGVEHLVALGHQQIALLAGPLSSVSARLRLAGWHKYLTRNQIQPIAEREGDWSAMSGFQQTMQMLNEGIVPTAMLVANDQMALGAMRAITESGLRVGADISVVGYDDTEDSSCYIPPLTTIKQDFRLLGQTSVDRLLQLSQGQAVKGNQLLPVSLVKRKTTLAPNTQTASPRALADSLMQLARQVSRLESGQ
B6: Growth factor receptor-bound protein 2, Q08012 (parent)
chain: MEAIAKHDFSATADDELSFRKTQILKILNMEDDSNWYRAELDGKEGLIPSNYIEMKNHDWYYGRITRADAEKLLSNKHEGAFLIRISESSPGDFSLSVKCPDGVQHFKVLRDAQSKFFLWVVKFNSLNELVEYHRTASVSRSQDVKLRDMIPEEMLVQALYDFVPQESGELDFRRGDVITVTDRSDENWWNGEIGNRKGIFPATYVTPYHS
B7: Cyclin-dependent kinase inhibitor 2A, P42771 (parent)
chain: MEPAAGSSMEPSADWLATAAARGRVEEVRALLEAGALPNAPNSYGRRPIQVMMMGSARVAELLLLHGAEPNCADPATLTRPVHDAAREGFLDTLVVLHRAGARLDVRDAWGRLPVDLAEELGHRDVARYLRAAAGGTRGSNHARIDAAEGPSDIPD
B8: Triosephosphate isomerase, glycosomal, P04789 (parent)
chain: MSKPQPIAAANWKCNGSQQSLSELIDLFNSTSINHDVQCVVASTFVHLAMTKERLSHPKFVIAAQNAIAKSGAFTGEVSLPILKDFGVNWIVLGHSERRAYYGETNEIVADKVAAAVASGFMVIACIGETLQERESGRTAVVVLTQIAAIAKKLKKADWAKVVIAYEPVWAIGTGKVATPQQAQEAHALIRSWVSSKIGADVAGELRILYGGSVNGKNARTLYQQRDVNGFLVGGASLKPEFVDIIKATQ

Variants of: B1
Conditions: Kitasatospora aureofaciens; pH 7; 25 °C; Thermal; CD; MOPS 30 mM; structure 1RGG; whole UniProt chain shown

Variant	ddG of mutation (higher = less stable) [kcal/mol]
E41K	1.2
E74K	-1.1
D17K	1.1
D25H	-0.9

Variants of: B2
Conditions: Homo sapiens; pH 7.5; 25 °C; Urea; CD; Tris-HCl 50 mM; transition: 2; structure 3CMQ; whole UniProt chain shown

Variant	ddG of mutation (higher = less stable) [kcal/mol]	denaturant midpoint (higher = more stable) [M]
S57C N280S	3.03	7.9
N280S	-0.51	5.7
S57C	-0.43	5.9

Variants of: B3
Conditions: Homo sapiens; pH 4.5; Thermal; CD; Unknown; structure 1PK2; whole UniProt chain shown

Variant	unfolding free energy [kcal/mol]
H264Y R268G	3.4
H264Y	2.9

Same assay, conditions: Homo sapiens; pH 7.4; Thermal; DSC; sodium Phosphate 10 mM; structure 1PML; whole UniProt chain shown

Variant	Tm [°C]	change of melting temperature, mutant - wild type (higher = more stable) [°C]	unfolding enthalpy (calorimetric) [kcal/mol]
W277F	58.5	-17.1	40
W277H	56.6	-19	56
W277Y	63.3	-12.3	45

Variants of: B4
Conditions: Escherichia coli (strain K12); pH 9; Thermal; DSC; Sodium tetraborate 1 mM; reversible: yes(>70%); structure 1WQ5; whole UniProt chain shown

Variant	Tm [°C]	change of melting temperature, mutant - wild type (higher = more stable) [°C]
K109N	52.5	-1.5

Same assay, conditions: Escherichia coli (strain K12); pH 7; 25.8 °C; GdnHCl; CD; Potassium phosphate 0.01 M; reversible: yes; structure 1WQ5; whole UniProt chain shown

Variant	ddG of mutation (higher = less stable) [kcal/mol]	unfolding free energy [kcal/mol]
E49M	-4.6	13.4
E49Q	2.5	6.3

Same assay, conditions: Escherichia coli (strain K12); pH 7; 25 °C; Thermal; DSC; tetra-borate 1 mM; reversible: yes(70-95%); structure 1WQ5; whole UniProt chain shown

Variant	unfolding enthalpy (calorimetric) [kcal/mol]	unfolding free energy [kcal/mol]
E49Q	23.2	7.4

Same assay, conditions: Escherichia coli (strain K12); pH 7; Thermal; DSC; tetra-borate 1 mM; reversible: yes(70-95%); structure 1WQ5; whole UniProt chain shown

Variant	Tm [°C]	heat capacity change of unfolding [kcal/mol/K]
E49Q	59.4	2.87

Same assay, conditions: Escherichia coli (strain K12); pH 7.2; 25 °C; Thermal; CD; tetra-borate 1 mM; reversible: yes(70-95%); structure 1WQ5; whole UniProt chain shown

Variant	unfolding free energy [kcal/mol]
E49Q	6.1

Same assay, conditions: Escherichia coli (strain K12); pH 7.2; Thermal; CD; tetra-borate 1 mM; reversible: yes(70-95%); structure 1WQ5; whole UniProt chain shown

Variant	Tm [°C]	heat capacity change of unfolding [kcal/mol/K]	unfolding enthalpy (van 't Hoff) [kcal/mol]
E49Q	59.6	2.68	14.3

Same assay, conditions: Escherichia coli (strain K12); pH 9.3; Thermal; CD; tetra-borate 1 mM; reversible: yes(70-95%); structure 1WQ5; whole UniProt chain shown

Variant	Tm [°C]	heat capacity change of unfolding [kcal/mol/K]	unfolding enthalpy (van 't Hoff) [kcal/mol]
E49Q	59.6	2.68	14.3

Same assay, conditions: Escherichia coli (strain K12); pH 9.3; Thermal; DSC; tetra-borate 1 mM; reversible: yes(70-95%); structure 1WQ5; whole UniProt chain shown

Variant	Tm [°C]	heat capacity change of unfolding [kcal/mol/K]
E49Q	62.4	2.87

Same assay, conditions: Escherichia coli (strain K12); pH 7.8; 25 °C; Urea; Fluorescence; Potassium phosphate 10 mM; transition: 3; reversible: yes; structure 1WQ5; whole UniProt chain shown

Variant	unfolding free energy
F139W	5.6 kcal/mol and 4.9 kcal/mol

Same assay, conditions: Escherichia coli (strain K12); pH 7.8; 25 °C; Urea; Fluorescence; Potassium phosphate 10 mM; reversible: yes; structure 1WQ5; whole UniProt chain shown

Variant	unfolding free energy [kcal/mol]
F258W	7

Variants of: B5
Conditions: Escherichia coli (strain K12); pH 7.5; Urea; CD; Tris-HCl 0.01 M; K2SO4 0.1 M; reversible: yes (90%); structure 1LBI; whole UniProt chain shown

Variant	unfolding free energy [kcal/mol]
Y282D	4.8

Same assay, conditions: Escherichia coli (strain K12); pH 7.4; Thermal; CD; phosphate 5 mM; reversible: no; structure 1LBI; whole UniProt chain shown

Variant	Tm [°C]
K84M	93
K84L	93

Variants of: B6
Conditions: Drosophila melanogaster; pH 6; 20 °C; GdnHCl; Fluorescence; phosphate 50 mM; structure 2A36; whole UniProt chain shown

Variant	ddG of mutation (higher = less stable) [kcal/mol]	denaturant m value [kcal/mol/M]	unfolding free energy [kcal/mol]
T22G	-3.6	2.2	4

Variants of: B7
Conditions: Homo sapiens; pH 7.5; 25 °C; Urea; CD; Sodium phosphate 15 mM; NaCl 100 mM; reversible: yes; structure 1A5E; whole UniProt chain shown

Variant	denaturant m value [kcal/mol/M]	denaturant midpoint (higher = more stable) [M]
P81L	1.1	3.4
D74N	1.2	1.4
D84N	2	1.8

Variants of: B8
Conditions: Trypanosoma brucei brucei; pH 7; Thermal; CD; 3-(N-morpholino)propanesulfonic acid/dithiothreitol 20 mM/0.02 mM; EDTA 0.02 mM; structure 3TIM; whole UniProt chain shown

Variant	Tm [°C]
R191A	47.3
R191S	51.6
D227A	48.7
D227N	49.3

Same assay, conditions: Trypanosoma brucei brucei; pH 7; Thermal; CD; MOPS 20 mM; reversible: no; structure 1TPE; whole UniProt chain shown

Variant	Tm [°C]	change of melting temperature, mutant - wild type (higher = more stable) [°C]
T75R G76Q	52	-5

Same assay, conditions: Trypanosoma brucei brucei; pH 7.4; Thermal; CD; MOPS 20 mM; EDTA 1 mM; reversible: no; structure 1TPE; whole UniProt chain shown

Variant	Tm [°C]	change of melting temperature, mutant - wild type (higher = more stable) [°C]
C14F	46.5	-4.9
